Assay [1] deals with T1, human IL13 (IL012, Millipore) (human, UniProt P35225 35-146). In words: SPR, BIAcore 3000; antibody captured by anti-human Fc, antigen as analyte. The method, then:
(§1) Surface plasmon resonance (SPR) was used to assess the binding of antigens to antibody. Binding of antigens to the antibody constructs was measured using surface plasmon resonance (SPR) with a BIAcore 3000 instrument (GE Healthcare) with HBS-EP buffer (GE Healthcare). Human IL4 (IL004, Millipore) and human IL13 (IL012, Millipore), human HER2 (1129-ER, R&D Systems), human TNFa (H8916, SIGMA Aldrich), human CTLA4 (CT4-H5229, ACRO Biosystems), human PD-1 (8986-PD, R&D Systems), and human IL6Ra (227-SR/CF, R&D Systems) were used as antigens. The anti-human Fc capture antibody (human antibody capture kit, GE Life Sciences) was immobilized via primary amine groups (11000 RU) on a research grade CM5 chip (GE Life Sciences) using standard procedures. […] Binding tests with HER2 was performed by capture of the antigen with the anti-human Fc antibody. The tested antibody constructs were used as analytes and injected at 100 nM concentration for 240 sec with a dissociation time of 300 sec at a flow rate of 30 μL/min. Binding kinetics measurements were done using the captured antibodies with injects of two-fold serial dilutions of the analytes of 3 nM to 100 nM. […] Chip surfaces were regenerated with 2 min injects of the regeneration buffer provided with the capture kit. Sensorgrams were double referenced with a blank chip surface and HBS-EP buffer blanks. Data analysis was performed using the BIAevaluation software v4.1.
On the technique in general: In SPR one partner is held on a chip, and binding of the other changes the refractive index at the surface.

Assay [2] has as its target T2, human PD-1 (8986-PD, R&D Systems) (human, UniProt Q15116 25-167). The assay is described as above. The method, then: as §1
The target of assay [3] is T1, human IL13 (IL012, Millipore). Description: SPR, BIAcore 3000; antibody captured by anti-human Fc, antigen as analyte; column head says nM, but kd/ka gives M. The method, then:
as §1

The target of assay [4] is T2, human PD-1 (8986-PD, R&D Systems). The assay is described as above. The method, then: as §1

The record followed here is patent publication US20230391888A1 (Sanofi, published 2023).

The term koff denotes the first-order rate constant of dissociation. Low readings indicate slow dissociation, high ones fast dissociation. What is called kon is the second-order rate constant of association. Read a low kon as slower complex formation. A word on the Kd: it is the free concentration of one partner at which half of the binding sites on the other are occupied at equilibrium, for simple one-to-one binding. Read a low Kd as a tighter complex.

T2 sequence (Q15116 25-167 limits assumed): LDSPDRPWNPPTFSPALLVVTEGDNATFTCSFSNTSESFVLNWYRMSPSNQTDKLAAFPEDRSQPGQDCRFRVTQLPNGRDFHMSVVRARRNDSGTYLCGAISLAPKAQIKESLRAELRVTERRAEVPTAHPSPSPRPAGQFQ
T1 sequence (P35225 35-146 limits assumed): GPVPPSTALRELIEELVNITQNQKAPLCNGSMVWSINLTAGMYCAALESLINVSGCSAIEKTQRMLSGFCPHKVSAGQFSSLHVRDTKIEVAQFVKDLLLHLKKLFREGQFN

B1: PD1 × IL13 bispecific (ID 26, anti-PD1-dsTrasKO2-Fc knob × anti-IL13-huIgG1 hole-RF) (bispecific antibody)
light 1: not shown
heavy 1: not shown
light 2: not shown
heavy 2: EVQLKESGPGLVAPGGSLSITCTVSGFSLTDSSINWVRQPPGKGLEWLGMIWGDGRIDYADALKSRLSISKDSSKSQVFLEMTSLRTDDTATYYCARDGYFPYAMDFWGQGTSVTVSSASTKGPSVFPLAPSSKSTSGGTAALGCLVKDYFPEPVTVSWNSGALTSGVHTFPAVLQSSGLYSLSSVVTVPSSSLGTQTYICNVNHKPSNTKVDKKVEPKSCDKTHTCPPCPAPELLGGPSVFLFPPKPKDTLMISRTPEVTCVVVDVSHEDPEVKFNWYVDGVEVHNAKTKPREEQYNSTYRVVSVLTVLHQDWLNGKEYKCKVSNKALPAPIEKTISKAKGQPREPQVCTLPPSRDELTKNQVSLSCAVKGFYPSDIAVEWESNGQPENNYKTTPPVLDSDGSFFLVSKLTVDKSRWQQGNVFSCSVMHEALHNRFTQKSLSLSPG
notes: PD1 arm is the pseudoFab (dsTrasKO2), IL13 arm the normal Fab
With B1, the values for the koff in assay [1] and in assay [2] were 1.66e-05 s⁻¹ and 0.0029 s⁻¹, respectively. For the same molecule, the kon was 2.92e+06 M⁻¹ s⁻¹ in assay [1] and 131000 M⁻¹ s⁻¹ in assay [2]. Further, the dissociation constant Kd in assay [3] was found to be 0.00568 nM; in assay [4], 22.1 nM.
